# Residue numbers refer to the chain shown, from its start.
# B1: 20.49 (Fab, V domains shown)
# VH: not shown
# VL: DIQMTQSPSSLSASVGDRVTITCRASVDLPKSVSGYVAWYQQKPGKAPKLLIYWGSFLYSGVPSRFSGSGSGTDFTLTISSLQPEDFATYYCQQHFTSPPTFGQGTKVEIKR
# B2: bH1 Fab (Fab, V domains shown)
# VH: not shown
# VL: B1 VL with V27Q, L29I, K31R, V33I, F57Y, F96Y, S98T
# notes: also called bispecific bH1 Fab
# B3: 35.87 (Fab, V domains shown)
# VH: not shown
# VL: B1 VL with V27Q, D28N, L29I, T97N
# B4: 20.93 (Fab, V domains shown)
# VH: not shown
# VL: B1 VL with S26V, V27E, S32T, V33I, S34T, S98T, T101K
# B5: 35.74 (Fab, V domains shown)
# VH: not shown
# VL: B1 VL with S26I, V27Q, L29I, S32T, V33I, S34T, T97N, T101K
# B6: 35.61 (Fab, V domains shown)
# VH: not shown
# VL: B1 VL with S26I, V27E, D28N, V33I, S34T, F96Y, T97S, S98T, P99T, T101K
# B7: 35.95 (Fab, V domains shown)
# VH: not shown
# VL: B1 VL with S26I, V27E, D28N, F96Y
# B8: 35.2 (Fab, V domains shown)
# VH: not shown
# VL: B1 VL with S26I, V27E, S32T, F96Y, T97S
# B9: 20.52 (Fab, V domains shown)
# VH: not shown
# VL: B1 VL with S26I, V27E, D28N, S32T, V33I, T97S
# B10: 35.21 (Fab, V domains shown)
# VH: not shown
# VL: B1 VL with V27Q, V33I, T97S
# B11: 20.80 (Fab, V domains shown)
# VH: not shown
# VL: B1 VL with V27E, L29I, V33I, T97S
# B12: 35.28 (Fab, V domains shown)
# VH: not shown
# VL: B1 VL with S26I, V27Q, D28N, L29I, P30A, S32T, V33I, S34T, T97N, T101K
# B13: 35.45 (Fab, V domains shown)
# VH: not shown
# VL: B1 VL with V27E, L29I, S32T, T97S
# B14: 35.56 (Fab, V domains shown)
# VH: not shown
# VL: B1 VL with S26V, V27Q, D28N, S32T, V33I, S34T, F96Y, S98I, T101K
# B15: 35.25 (Fab, V domains shown)
# VH: not shown
# VL: B1 VL with S26I, V27Q, D28K, L29V, K31R, S32T, V33I, S34T, F96Y
# B16: H3 Fab (Fab, V domains shown)
# VH: not shown
# VL: DIQMTQSPSSLSASVGDRVTITCRASQDIGLGSVAWYQQKPGKAPKLLIYWASYLYSGVPSRFSGSGSGTDFTLTISSLQPEDFATYYCQQHYTTPPTFGQGTKVEIKR
# notes: also called bH3 Fab
# B17: bH4 (antibody, V domains shown)
# VH: not shown
# VL: B16 VL with G30R, L31S, A52G
# B18: clone 6 (scFv, V domains shown)
# VH: not shown
# VL: DIQMTQSPSSLSASVGDRVTITCRASQDIWRAVAWYQQKPGKAPKLLIYPASNLYSGVPSRFSGSGSGTDFTLTISSLQPEDFATYYCQQGYYIAPPTFGQGTKVEIK
# B19: clone 67 (lower block) (scFv, V domains shown)
# VH: not shown
# VL: DIQMTQSPSSLSASVGDRVTITCRASQDIWRWLAWYQQKPGKAPKLLIYAGSSLYSGVPSRFSGSGSGTDFTLTISSLQPEDFATYYCQQHDQAPPTFGQGTKVEIK
# B20: clone 12 (scFv, V domains shown)
# VH: not shown
# VL: DIQMTQSPSSLSASVGDRVTITCRASQDIGGGSVAWYQQKPGKAPKLLIYWGSFLYSGVPSRFSGSGSGTDFTLTISSLQPEDFATYYCQQHYTTPPTFGQGTKVEIK
# B21: clone 45 (scFv, V domains shown)
# VH: not shown
# VL: B20 VL with G30H, G31S, F54Y
# B22: clone 27 (scFv, V domains shown)
# VH: not shown
# VL: DIQMTQSPSSLSASVGDRVTITCRASQYVYSTTVAWYQQKPGKAPKLLIYNGSSLYSGVPSRFSGSGSGTDFTLTISSLQPEDFATYYCQQASSAPPTFGQGTKVEIK
# B23: clone 75 (scFv, V domains shown)
# VH: not shown
# VL: DIQMTQSPSSLSASVGDRVTITCRASQDIPSIYVAWYQQKPGKAPKLLIYGASYLYSGVPSRFSGSGSGTDFTLTISSLQPEDFATYYCQQRYWVAPPTFGQGTKVEIK
# B24: 3-3 (scFv, V domains shown)
# VH: not shown
# VL: B18 VL with D28Q, A32H, V33L, P50T, A51G, N53S, G91S, Y93W, I94V
# notes: also called c3-3
# B25: H6 (scFv, V domains shown)
# VH: not shown
# VL: DIQMTQSPSSLSASVGDRVTITCRASQYIWNYVAWYQQKPGKAPKLLIYGGSSLYSGVPSRFSGSGSGTDFTLTISSLQPEDFATYYCQQSWWAGPPTFGQGTKVEIK
# Target: T1, HER2 extracellular domain (Her2-ECD) (human, UniProt P04626 23-652)
# T1 construct: extracellular domain; also called hHER2 extracellular domain (ECD)
# Assay: competition ELISA of phage-displayed Fab
row,Binder,IC50
1,B1,2.6 nM
2,B2,2.1 nM
3,B3,2.2 nM
4,B4,3.8 nM
5,B5,0.7 nM
6,B6,7.1 nM
7,B7,4.3 nM
8,B8,3.5 nM
9,B9,3.1 nM
10,B10,1.4 nM
11,B11,2.2 nM
12,B12,0.6 nM
13,B13,1.1 nM
14,B14,1.7 nM
15,B15,0.4 nM

# Target: T2, hVEGF109 (human, UniProt P15692 214-315)
# T2 construct: range 8-109; also called VEGF (8-109)
# T2 sequence (looked up): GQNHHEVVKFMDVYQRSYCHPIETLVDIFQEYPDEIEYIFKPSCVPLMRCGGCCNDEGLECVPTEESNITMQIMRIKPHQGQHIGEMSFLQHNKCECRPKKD
# Assay: Biacore SPR
row,Binder,Kd
1,B16,3930 nM

# Target: T1, HER2 extracellular domain (Her2-ECD)
# Assay: Biacore SPR
row,Binder,Kd
1,B16,8 nM
2,B2,59 nM

# Target: T1, HER2 extracellular domain (Her2-ECD)
# Assay: equilibrium KD; method and format (Fab or IgG) not given; HER2, second number of the cell
row,Binder,Kd
1,B17,11 nM

# Target: T2, hVEGF109
# Assay: single-spot competitive phage ELISA
Binder,"% signal, SSC +/- 50 or 100nM VEGF",OD450 without competitor
B18,85.6%,2.12
B19,85.8%,1.05
B20,81.3%,2.23
B21,88.2%,3.08
B22,95.7%,2.82
B23,85.1%,2.9

# Target: T1, HER2 extracellular domain (Her2-ECD)
# Assay: single-spot competitive phage ELISA
row,Binder,OD450 without competitor
1,B24,0.05
2,B18,0.04
3,B25,0.05
4,B19,0.05
5,B20,0.04
6,B21,0.05
7,B22,0.04
8,B23,0.07

# Source: patent publication US20220033515A1 (Genentech, published 2022)
